Source: paper PMC12551112, “Exploration into the MLL4/WRAD Enzyme-Substrate Network: Systematic In Vitro Identification of CFP1 as a Potential Non-Histone Substrate of the MLL4 Lysine Methyltransferase” (Epigenomes, 2025)
Ends that are not written are not given here. Me3 = trimethyl-lysine; Me2 = dimethyl-lysine

T1: MLL4 PHD1–3 (residues 156–341) (UniProt O14686 156-341)
T1 construct: MLL4 (KMT2D, ALR), PHD fingers 1–3, residues 156–341; Detected on the array with anti-6xHis-HRP; The purification of the PHD constructs is not described separately; also called MLL4 PHD1–3 cassette; KMT2D PHD1–3; source: bacterially expressed recombinant
T1 sequence (looked up): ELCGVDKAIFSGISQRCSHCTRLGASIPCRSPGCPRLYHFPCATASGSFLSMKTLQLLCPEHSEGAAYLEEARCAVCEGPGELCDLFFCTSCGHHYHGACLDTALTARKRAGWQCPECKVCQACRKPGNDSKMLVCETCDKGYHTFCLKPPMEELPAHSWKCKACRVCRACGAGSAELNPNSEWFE


Experiments:
Test in all cases: peptide or protein array; SPOT peptides on cellulose membrane; 1 μM 6xHis-tagged MLL4 PHD cassette in TBS-T overnight at 4 °C; probed with anti-6xHis-HRP, chemiluminescence; signals relative to the H4K20me0 peptide (100%), spots of at least 50% taken as candidate binders
Conditions in all cases: both partners purified
[1] = biological target: T1, MLL4 PHD1–3 (residues 156–341)
[2] = biological target: T2, MLL4 PHD4–6 (residues 1358–1572) (UniProt O14686 1358-1572)
T2 construct: MLL4 (KMT2D, ALR), PHD fingers 4–6, residues 1358–1572; Detected on the array with anti-6xHis-HRP; The purification of the PHD constructs is not described separately; also called MLL4 PHD4–6 cassette; KMT2D PHD4–6; source: bacterially expressed recombinant

[3] = biological target: T3, MLL4 PHD7 (residues 5079–5152) (UniProt O14686 5079-5152)
T3 construct: MLL4 (KMT2D, ALR), PHD finger 7, residues 5079–5152; Detected on the array with anti-6xHis-HRP; The purification of the PHD constructs is not described separately; also called KMT2D PHD7; source: bacterially expressed recombinant
T3 sequence (O14686 5079-5152): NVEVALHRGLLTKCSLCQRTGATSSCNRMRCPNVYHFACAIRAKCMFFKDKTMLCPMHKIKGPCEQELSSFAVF

T2 sequence (O14686 1358-1572): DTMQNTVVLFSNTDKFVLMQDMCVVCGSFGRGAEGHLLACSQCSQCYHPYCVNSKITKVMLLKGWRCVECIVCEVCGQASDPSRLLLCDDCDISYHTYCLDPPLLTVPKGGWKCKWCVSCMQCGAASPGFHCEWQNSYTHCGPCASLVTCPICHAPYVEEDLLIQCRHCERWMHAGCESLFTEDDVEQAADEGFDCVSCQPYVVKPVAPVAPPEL

| Binder | binding result [1] | binding result [2] | binding result [3] |
| --- | --- | --- | --- |
| RKRAVKVKHVK(Me)RREKKSEKKK (peptide, UniProt Q9P0U4 321-341, looked up, CFP1 (CXXC finger protein 1), human, peptide centred on K331 with 10 flanking residues on each side; held on the cellulose membrane of the array; also called K331 Kme1; source: synthetic peptide, SPOT synthesis on cellulose membrane) [CFP1 K331me1 peptide] | binds | – | – |
| VKVKHVKRREK(Me)KSEKKKEERY (peptide, UniProt Q9P0U4 325-345, looked up, CFP1 (CXXC finger protein 1), human, peptide centred on K335 with 10 flanking residues on each side; held on the cellulose membrane of the array; source: synthetic peptide, SPOT synthesis on cellulose membrane) [CFP1 K335me1 peptide] | binds | binds | – |
| VKVKHVKRREK(Me2)KSEKKKEERY (peptide, UniProt Q9P0U4 325-345, looked up, CFP1 (CXXC finger protein 1), human, peptide centred on K335 with 10 flanking residues on each side; held on the cellulose membrane of the array; source: synthetic peptide, SPOT synthesis on cellulose membrane) [CFP1 K335me2 peptide] | binds | binds | – |
| VKVKHVKRREK(Me3)KSEKKKEERY (peptide, UniProt Q9P0U4 325-345, looked up, CFP1 (CXXC finger protein 1), human, peptide centred on K335 with 10 flanking residues on each side; held on the cellulose membrane of the array; source: synthetic peptide, SPOT synthesis on cellulose membrane) [CFP1 K335me3 peptide] | binds | binds | – |
| VKVKHVKRREKKSEKKKEERY (peptide, UniProt Q9P0U4 325-345, looked up, CFP1 (CXXC finger protein 1), human, peptide centred on K335 with 10 flanking residues on each side; held on the cellulose membrane of the array; also called unmethylated K335; source: synthetic peptide, SPOT synthesis on cellulose membrane) [CFP1 K335me0 peptide] | binds | binds | binds |
| HVKRREKKSEK(Me)KKEERYKRHR (peptide, UniProt Q9P0U4 329-349, looked up, CFP1 (CXXC finger protein 1), human, peptide centred on K339 with 10 flanking residues on each side; held on the cellulose membrane of the array; source: synthetic peptide, SPOT synthesis on cellulose membrane) [CFP1 K339me1 peptide] | binds | – | – |
| VKRREKKSEKK(Me3)KEERYKRHRQ (peptide, UniProt Q9P0U4 330-350, looked up, CFP1 (CXXC finger protein 1), human, peptide centred on K340 with 10 flanking residues on each side; held on the cellulose membrane of the array; source: synthetic peptide, SPOT synthesis on cellulose membrane) [CFP1 K340me3 peptide] | – | binds | – |
| KEERYKRHRQK(Me2)QKHKDKWKHP (peptide, UniProt Q9P0U4 341-361, looked up, CFP1 (CXXC finger protein 1), human, peptide centred on K351 with 10 flanking residues on each side; held on the cellulose membrane of the array; source: synthetic peptide, SPOT synthesis on cellulose membrane) [CFP1 K351me2 peptide] | – | binds | – |
